{
  "source": "the RNAGym collection of RNA variant scans (doi:10.1021/acssynbio.7b00057)",
  "parents": {"B1": {"name": "Pistol ribozyme (parent)", "chain": "GGGUCGUUGUUCCAUAAUCGCGUGGAUAUGGCACGCAAGUUUCUACCGGGCACCGUAAAUGUCCGACUGGAGCCGUUCGGGCGGCUAUAAACAGACCUCAGGCCCGAAGCGUGGCGGCACCUGCCGCCGGUGGUAAAAAAGAUCGGAAGAGCACACGUCU"}},
  "data": [
    {"variants_of": "B1", "experiment": "aptazyme ON/OFF ratio, guanine; higher = stronger switching; co-transcriptional cleavage with and without guanine", "values": [
      {"variant": "U7C U8G U11G C12U C13A", "aptazyme ON/OFF ratio": 1.11},
      {"variant": "U7C U8G U11G C12U C13G", "aptazyme ON/OFF ratio": 1.07},
      {"variant": "U7C U8G U11G C12U C13U", "aptazyme ON/OFF ratio": 1.17},
      {"variant": "U7C U8G U10C U11G C12U C13A", "aptazyme ON/OFF ratio": 1.24},
      {"variant": "U7C U8G U10C U11G C12U C13G", "aptazyme ON/OFF ratio": 1.17},
      {"variant": "U7C U8G U10C U11G C12U C13U", "aptazyme ON/OFF ratio": 1.25},
      {"variant": "U7C U10G U11A C12A C13U", "aptazyme ON/OFF ratio": 1.09},
      {"variant": "U7C U10G U11A C12A C13G", "aptazyme ON/OFF ratio": 1.17},
      {"variant": "U7C U10G U11A C12A C13A", "aptazyme ON/OFF ratio": 1.2},
      {"variant": "U7C U8G U10C U11A C13A", "aptazyme ON/OFF ratio": 1.32},
      {"variant": "U7C U8G U10C U11A C13G", "aptazyme ON/OFF ratio": 1.16},
      {"variant": "U7C U8G U10C U11A C13U", "aptazyme ON/OFF ratio": 3.36},
      {"variant": "U7C U10A U11A C12G", "aptazyme ON/OFF ratio": 1.28},
      {"variant": "U7C U10A U11A C12U", "aptazyme ON/OFF ratio": 1.2},
      {"variant": "U7C U10A U11A C12A", "aptazyme ON/OFF ratio": 1.17},
      {"variant": "U7C U8G U10G C12A C13A", "aptazyme ON/OFF ratio": 1.24},
      {"variant": "U7C U8G U10G C12A C13G", "aptazyme ON/OFF ratio": 1.09},
      {"variant": "U7C U8G U10G C12A C13U", "aptazyme ON/OFF ratio": 1.33},
      {"variant": "U7C U10G C12A C13G", "aptazyme ON/OFF ratio": 1.14},
      {"variant": "U7C U10G C12A C13A", "aptazyme ON/OFF ratio": 1.15},
      {"variant": "U7C U10G C12A C13U", "aptazyme ON/OFF ratio": 1.15},
      {"variant": "U7C U10G U11G C12A C13U", "aptazyme ON/OFF ratio": 1.26},
      {"variant": "U7C U10G U11G C12A C13G", "aptazyme ON/OFF ratio": 1.16},
      {"variant": "U7C U10G U11G C12A C13A", "aptazyme ON/OFF ratio": 1.13},
      {"variant": "U7C U8G U11G", "aptazyme ON/OFF ratio": 1.2},
      {"variant": "U7C U8G U11A", "aptazyme ON/OFF ratio": 1.88},
      {"variant": "U7C U8G U11C", "aptazyme ON/OFF ratio": 3.13},
      {"variant": "U7C U10C U11C C12U", "aptazyme ON/OFF ratio": 1.31},
      {"variant": "U7C U10C U11C C12G", "aptazyme ON/OFF ratio": 1.28},
      {"variant": "U7C U10C U11C C12A", "aptazyme ON/OFF ratio": 1.29},
      {"variant": "U7C U10A U11C C13U", "aptazyme ON/OFF ratio": 1.01},
      {"variant": "U7C U10A U11C C13G", "aptazyme ON/OFF ratio": 1.01},
      {"variant": "U7C U10A U11C C13A", "aptazyme ON/OFF ratio": 1.02},
      {"variant": "U7C U10G U11C C12G C13G", "aptazyme ON/OFF ratio": 1.16},
      {"variant": "U7C U10G U11C C12G C13A", "aptazyme ON/OFF ratio": 1.22},
      {"variant": "U7C U10G U11C C12G C13U", "aptazyme ON/OFF ratio": 1.28},
      {"variant": "U7C U10C C12G C13U", "aptazyme ON/OFF ratio": 1.21},
      {"variant": "U7C U10C C12G C13G", "aptazyme ON/OFF ratio": 1.18},
      {"variant": "U7C U10C C12G C13A", "aptazyme ON/OFF ratio": 1.23},
      {"variant": "U7C U10G U11A C12G", "aptazyme ON/OFF ratio": 1.15},
      {"variant": "U7C U10G U11A C12U", "aptazyme ON/OFF ratio": 1.15},
      {"variant": "U7C U10G U11A C12A", "aptazyme ON/OFF ratio": 1.13},
      {"variant": "U7C U10G U11C C12U C13U", "aptazyme ON/OFF ratio": 1.27},
      {"variant": "U7C U10G U11C C12U C13G", "aptazyme ON/OFF ratio": 1.16},
      {"variant": "U7C U10G U11C C12U C13A", "aptazyme ON/OFF ratio": 1.28},
      {"variant": "U7C U8G U10C U11C C13G", "aptazyme ON/OFF ratio": 1.09},
      {"variant": "U7C U8G U10C U11C C13A", "aptazyme ON/OFF ratio": 1.03},
      {"variant": "U7C U8G U10C U11C C13U", "aptazyme ON/OFF ratio": 1.11},
      {"variant": "U7C U10A C12A C13G", "aptazyme ON/OFF ratio": 1.08},
      {"variant": "U7C U10A C12A C13A", "aptazyme ON/OFF ratio": 1.16},
      {"variant": "U7C U10A C12A C13U", "aptazyme ON/OFF ratio": 1.25},
      {"variant": "U7C U10C U11C C12U C13U", "aptazyme ON/OFF ratio": 1.33},
      {"variant": "U7C U10C U11C C12U C13G", "aptazyme ON/OFF ratio": 1.24},
      {"variant": "U7C U10C U11C C12U C13A", "aptazyme ON/OFF ratio": 1.25},
      {"variant": "U7C U10C C12A C13U", "aptazyme ON/OFF ratio": 1.34},
      {"variant": "U7C U10C C12A C13G", "aptazyme ON/OFF ratio": 1.18},
      {"variant": "U7C U10C C12A C13A", "aptazyme ON/OFF ratio": 1.37},
      {"variant": "U7C U10G U11C C13U", "aptazyme ON/OFF ratio": 1.02},
      {"variant": "U7C U10G U11C C13G", "aptazyme ON/OFF ratio": 1.06},
      {"variant": "U7C U10G U11C C13A", "aptazyme ON/OFF ratio": 1.08},
      {"variant": "U7C U8G U10G U11A C12A C13U", "aptazyme ON/OFF ratio": 1.2},
      {"variant": "U7C U8G U10G U11A C12A C13A", "aptazyme ON/OFF ratio": 1.11},
      {"variant": "U7C U8G U10G U11A C12A C13G", "aptazyme ON/OFF ratio": 1.13},
      {"variant": "U7C U8G U10G C12G", "aptazyme ON/OFF ratio": 1.36},
      {"variant": "U7C U8G U10G C12A", "aptazyme ON/OFF ratio": 1.21},
      {"variant": "U7C U8G U10G C12U", "aptazyme ON/OFF ratio": 1.24},
      {"variant": "U7C U10A U11A C13G", "aptazyme ON/OFF ratio": 1.2},
      {"variant": "U7C U10A U11A C13A", "aptazyme ON/OFF ratio": 1.28},
      {"variant": "U7C U10A U11A C13U", "aptazyme ON/OFF ratio": 1.19},
      {"variant": "U7C U10A C12A", "aptazyme ON/OFF ratio": 1.22},
      {"variant": "U7C U10A C12U", "aptazyme ON/OFF ratio": 1.09},
      {"variant": "U7C U10A C12G", "aptazyme ON/OFF ratio": 1.29},
      {"variant": "U7C U10G U11C C12U", "aptazyme ON/OFF ratio": 1.16},
      {"variant": "U7C U10G U11C C12A", "aptazyme ON/OFF ratio": 2.07},
      {"variant": "U7C U10G U11C C12G", "aptazyme ON/OFF ratio": 1.52},
      {"variant": "U7C U10G U11A C12G C13U", "aptazyme ON/OFF ratio": 1.22},
      {"variant": "U7C U10G U11A C12G C13G", "aptazyme ON/OFF ratio": 1.15},
      {"variant": "U7C U10G U11A C12G C13A", "aptazyme ON/OFF ratio": 1.09},
      {"variant": "U7C U8G U10G U11G C13U", "aptazyme ON/OFF ratio": 1.39},
      {"variant": "U7C U8G U10G U11G C13G", "aptazyme ON/OFF ratio": 1.28},
      {"variant": "U7C U8G U10G U11G C13A", "aptazyme ON/OFF ratio": 1.21},
      {"variant": "U7C U10C U11G C12U C13A", "aptazyme ON/OFF ratio": 1.16},
      {"variant": "U7C U10C U11G C12U C13U", "aptazyme ON/OFF ratio": 1.16},
      {"variant": "U7C U10C U11G C12U C13G", "aptazyme ON/OFF ratio": 1.41}
    ]}
  ]
}
